The test has as its target CD19 (Homo sapiens (Raji, SU-DHL-7 cells), UniProt P15391). As to the kind of experiment: flow cytometry on cells. For orientation: In flow cytometry, cells or beads pass a laser one at a time.

Sequence of CD19 (P15391 20-556): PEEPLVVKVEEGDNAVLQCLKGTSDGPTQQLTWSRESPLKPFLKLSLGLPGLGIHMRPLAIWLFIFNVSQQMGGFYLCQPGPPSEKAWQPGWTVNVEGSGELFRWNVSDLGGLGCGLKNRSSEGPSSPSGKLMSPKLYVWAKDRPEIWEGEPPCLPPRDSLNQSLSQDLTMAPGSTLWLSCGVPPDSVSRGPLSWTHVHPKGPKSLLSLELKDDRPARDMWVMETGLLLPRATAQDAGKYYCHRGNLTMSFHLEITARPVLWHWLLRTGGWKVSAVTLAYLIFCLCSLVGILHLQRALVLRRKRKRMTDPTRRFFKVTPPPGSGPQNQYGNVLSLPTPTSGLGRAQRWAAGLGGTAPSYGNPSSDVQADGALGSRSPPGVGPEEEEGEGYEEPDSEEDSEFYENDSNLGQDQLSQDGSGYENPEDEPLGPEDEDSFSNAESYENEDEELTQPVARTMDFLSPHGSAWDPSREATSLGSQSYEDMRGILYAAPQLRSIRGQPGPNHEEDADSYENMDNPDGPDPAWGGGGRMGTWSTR

B1: aCD19A (anti-CD19-A192) Nanoworm (scFv, V domains shown)
VH: QVQLQQSGAELVRPGSSVKISCKASGYAFSSYWMNWVKQRPGQGLEWIGQIWPGDGDTNYNGKFKGKATLTADESSSTAYMQLSSLASEDSAVYFCARRETTTVGRYYYAMDYWGQGTTVTVSS
VL: DIQLTQSPASLAVSLGQRATISCKASQSVDYDGDSYLNWYQQIPGQPPKLLIYDASNLVSGIPPRFSGSGSGTDFTLNIHPVEKVDAATYHCQQSTEDPWTFGGGTKLEIK
As to B1, the binding result is given as “binds”.

For the origin of these results see publication PMC8386582 (Biomaterials, 2020).
